Assay results published in the DeepSol protein solubility set.

Assay: soluble on expression in E. coli; label from the status in PepcDB or PDB records
For “MGSSHHHHHHSSGLVPRGSHMTDKLTSLRQYTTVVADTGDIAAMKLYQPQDATTNPSLILNAAQIPEYRKLIDDAVAWAKQQSNDRAQQIVDATDKLAVNIGLEILKLVPGRISTEVDARLSYDTEASIAKAKRLIKLYNDAGISNDRILIKLASTWQGIRAAEQLEKEGINCNLTLLFSFAQARACAEAGVFLISPYVGEILDWYKANTDKKEYAPAEDPGVVSVSEIYQYYKEHGYETVVMGASFRNIGEILELAGCDRLTIAPTLLKELAESEGAIERKLSYTGEVKARPARITESEFLWQHNQDPMAVDKLAEGIRKFAIDQEKLEKMIGDLL”, the “soluble on expression in E. coli” value was “soluble”. With “MGSSHHHHHHSSGLVPRGSHMWIGVISLFPEMFKAITEFGVTGRAVKHNLLKVECWNPRDFTFDKHKTVDDRPYGGGPGMLMMVQPLRDAIHTAKAAAGEGAKVIYLSPQGRKLDQGGVTELAQNQKLILVCGRYEGIDERLIQTEIDEEWSIGDYVLTGGELPAMTLIDAVARFIPGVLGKQASAEEDSFADGLLDCPHYTRPEVLEGLTVPPVLMSGHHEEIRKWRLKQSLQRTWLRRPELLEGLALTDEQRKLLKEAQAEHNSLEHHHHHH” the “soluble on expression in E. coli” value was “soluble”. For “MGSSHHHHHHSSGLVPRGSMGFKVKLEKRRNAINTCLCIGLDPDEKDIENFMKNEKENNYNNIKKNLKEKYINNVSIKKDILLKAPDNIIREEKSEEFFYFFNHFCFYIINETNKYALTFKMNFAFYIPYGSVGIDVLKNVFDYLYELNIPTILDMKINDIGNTVKNYRKFIFEYLKSDSCTVNIYMGTNMLKDICYDEEKNKYYSAFVLVKTTNPDSAIFQKNLSLDNKQAYVIMAQEALNMSSYLNLEQNNEFIGFVVGANSYDEMNYIRTYFPNCYILSPGIGAQNGDLHKTLTNGYHKSYEKILINIGRAITKNPYPQKAAQMYYDQINAILKQNMES”, the “soluble on expression in E. coli” value was “soluble”. For “MGSSHHHHHHSSGRENLYFQGHMFFTDWEGPWILTDFALELCMAVFNNARFFSNLSEYDDYLAYEVRREGYEAGYTLKLLTPFLAAAGVKNRDVERIAELSAKFVPDAEKAMATLQERWTPVVISTSYTQYLRRTASMIGVRGELHGTEVDFDSIAVPEGLREELLSIIDVIASLSGEELFRKLDELFSRSEVRKIVESVKAVGAGEKAKIMRGYCESKGIDFPVVVGDSISDYKMFEAARGLGGVAIAFNGNEYALKHADVVIISPTAMSEAKVIELFMERKERAFEVLSAVSIPETEIYIMENSDFGEVLEKSKRMRVRLRGLAGELGGS”, the “soluble on expression in E. coli” value was “soluble”. In the case of “MGSSHHHHHHSSGRENLYFQGHMMSGHNKWANIKHRKMAQDAKKSKIFTKLIREIIVAAREGGGNIETNPRLRAAVERARAENMPKENIERAIKRGTGELEGVDYQEVIYEGYAPGGVAVYIRALTDNKNRTAQELRHLFNKYGGSLAESGSVSWIFERKGVIEISRDKVKDLEELMMIAIDAGAEDIKDAEDPIQIITAPENLSEVKSKLEEAGYEVEAKVTFIPKNTVKVTGKDAEKVLEFLNALEDMDDVQEVYSNFEMDDKEMEEILSRLEG”, the “soluble on expression in E. coli” value is reported as “soluble”. In the case of “MGSSHHHHHHSSGRENLYFQGHMPSNLNIVKVTKPQEENKNFLHKNTNEPNEMEQSQTQEAVTENFTENSNLSANEHAARRGRLNLKTVDHIETYPIVQETEEIAKKIALTRIILAQTKPRIDKVVVSRPVQAVAPVVNFFDKMANSTLSTVERVVPSLKTKTYKRLGEEIALPYTLSKKYGKQLRDTTARNGDNYVYQPVHGRLMKFRKYYNEKFIDTKGKPLIRGQLDPVLLPVNNTFEKVTVKYLPKGKKVPNDSFSCEFNRGLALEYNFMTRAVSAVSHQVVGIAKLPIAYGYHTNSVYNKNLDKQADLKMKNVLRGTWDTITDLEREIWASVTDRSLFRFFGNKSEGGDLPHLVQ”, the “soluble on expression in E. coli” value is reported as “soluble”. In the case of “MGSSHHHHHHSSGRENLYFQGHMTRSAEPRVLQFCHGYDGPFLDCARQYASLFAGTPYKVTTVFLTGRSDPEVAARCASDEVLFLEYGSRDIRGLKLKAIRDLREIARSRDFRFCIAHRFKPIWIASLATRLPIVGVHHAFGDYQRLSRKVFAGLMSKRLSLLAVSDAVRDDIRRCLPKWPAERIETLYNRIDVAALQAEQVERLSARRQLRLPDEAWVVGNVGRLHPDKDQATLLRGFAAALPRLPQNSLLAILGSGRLEEQLKDLACELGIGERVLFLGQVEEARRYFKAFDAFALSSDHEPFGMVLLEAMVAGVPLIATACGGAREVVEGVGILFPLGDETALAEGLTHLAALDRRQREACARLMLERLETRFSDAAVRREFWRLPTIAGFASESAC”, the “soluble on expression in E. coli” value is reported as “soluble”. With “MGSYIQMSGIGSRLRQERERLGLSQKVFGEIGGVEANAQGKYESGDRAPKADYLSRVAAKGVDVLYVLTGSRIPIQSGGLSQTEEKVLDCYRALFKEDQDAICRLTSTLAELSASQGERRKAQVRE” the “soluble on expression in E. coli” value was “soluble”. In the case of “MGTFNNSIQEKIEKLQKTVDTLLHMGENMDCICVDDLSLLNKEIHEQINDLYPYHGKTAEQEAALCLSLLMGYSVSMYANSEDEAKKKTVLRRSQMILKNQLPSPLKIQLHTIYDKLLS”, the “soluble on expression in E. coli” value is reported as “not soluble”. In the case of “MGTIGKKAAKGASVKFSESSTQAVIKATYLQVFGRDVYEGQRLKVQEIKLENGEISVRDFVRALAKSDLFRKLYWTPFYVCKAIEYIHRRLLGRPTYGRQENNKYFDIASKKGLYAVVDAILDSLEYTETFGEDTVPYERYLTPAGLEHHHHHH”, the “soluble on expression in E. coli” value is reported as “not soluble”. For “MGTVHARSLDPLPMNGPDFGSPDDADLVEVEPQKKQEILENKDVVVQRVHFEGLGRTKDDLVAHEIGQVFKAKNLIEVMRKSHEAREKLLRLGVFRNVEVLIDTCEGEDAVPNGLDVTFEVTELRRVTGSYNTMVGNNEGSMVLGLKLPNLFGRAEKMTFQFSYGTKETSYGLSFFKPQVGNFERNFSVNLYKVTGQFPWSSLRETDRGVSAEINFPIWKTSHTLKWEGVWRELGCLARTASFTIREESGHTLKSSLSHSMVIDSRNASILPKSGALLKINQELAGYTGGDVSFLKEDFELQLNRQLTWDSVLSTSLWGGMLVPIGDRPSSIADRFYLGGPTSVRGFSMYSIGPQSEGDYLGGEAYWAGGVHLYTPLPFRPGRGGFGDLFRTHFFLNAGNLCNLNYGEGPGAHLRRLAECIRWSYGAGLVLRLGNIARLELNYCIPMGVQSGDRICDGVQFGAGIRFL”, the “soluble on expression in E. coli” value was “soluble”. With “MGTVHARSMDSYPMYGRDLGVNTDDMEVMEAVQETKQEVLENKDVVVQHVNIEGLGRTKEDYLGYEISDVFTARNLVEVMRKSHEARQRLLRLGIFRDVEVVIDISEGADALPNGLDVTFEVTELKRLTGSYNTMVGNNEGSMVLGIKLPNMLGRGEKLTFQFSYGTKETSYGLSFFKPQSGYFERNFTVNLYKVTGQFPWSSLKETDRGVSTELSLPLWMTDHTLKWEGVWRELGCLARSASFAVREESGHTLKSALSHTMVVDTRNSAILPRKGALLRINQELAGYTGGDANFLKEDVELQLNKQFIWGSVLSASLWGGMIYPLGAQPTSIADRFYLGGPTSVRGFGMYSIGPQSEGDYLGGEAYWAGGLHLYTPLPFRSNKGGLADLFRTHFFLNAGNICNLNYGEGPRAHLQKLAECIRWSYGAGIILRLGNIARLELNYCFPMGVQSGDRICDGVQFGAGIRFL” the “soluble on expression in E. coli” value was “soluble”. In the case of “MGVFLFDRDCRYTVAGGGEISSAGLTPADFEGSKPHDLFSEAIADELEHYYREALDGHSHSFEQQYRGKHYRVQTVPVRDDNGEVISGLAVSEDVTARRERQRTLERQNERLREFAGVVSHDLRNPLNVAQGRLKLARAECDSEHLDNVAAAIERSNRLIDDLLTLASSGDEVTETASLDLGAVVDGCWQNVPTDGATLVVRSEQTVVADRGRLEQLLENLVRNAVEHAFPQSEVSLDAAEGDASDLTVTVGALEDGFYVEDTGPGIPPEERDDVFKGGYSTAADGTGFGLRIVRQIAEAHGWTVTVADGEHGGARFEVRGIETT”, the “soluble on expression in E. coli” value is reported as “not soluble”. In the case of “MGYKTILAVVDNVSNTQKLGEFVVSLADQFSSHVIGLHMETLAAVPLVAPMEIPDPATVQALQDVAHKETTDVGTLFERTLSTNGISHEWRSFVTSVGYASASAIDSARCADLIVARQSSSSALSDSRSDIDGFLYESGRPVLLVPHVLTVAKPIKRVLIAWNGSREATRATFDALPFLKAADSVEIFSVDQSESETQSAGLAGAELAATLARHGVNVTVTSQEKIAGLSPQAAIENRLSDNSIDLLVMGAYGHSRWWELLFGGVTRTLLDSMTAMTLLSR”, the “soluble on expression in E. coli” value is reported as “soluble”. For “MGYSSDTTPCCFAYIARPMPRAHIKEYFYTSGKCSNPAVVFVTRKNRQVCANPEKKWVREYINSLEMS”, the “soluble on expression in E. coli” value was “soluble”.
